Legend:
[1] = molecular target: Aβ42 A21C/A30C (Aβ42-CC) monomers (UniProt P05067); assay: direct ELISA, Aβ42-CC monomers coated at pH 10.4
[2] = molecular target: Aβ42 A21C/A30C (Aβ42-CC) monomers (UniProt P05067); assay: direct ELISA, Aβ42-CC monomers coated at pH 10.4 with 10 mM TCEP (reduced form)
[3] = molecular target: Aβ42 A21C/A30C (Aβ42-CC) monomers (UniProt P05067); assay: direct ELISA, Aβ42-CC monomers coated at pH 7.4

total Ig titer (log10) [1]: 2 log10 titer
total Ig titer (log10) [2]: 2.1 log10 titer
total Ig titer (log10) [3]: 2.1 log10 titer
Substance: monoclonal antibody 6E10 (Covance Research Products)
